Experiments:
b-KDRIg4-7-myc-his = biological target: T1, b-KDRIg4-7-myc-his (UniProt P35968 328-764, prefix 'b-' not explained; captured on neutravidin-coated plates (presumably biotinylated, site not stated)); assay: ELISA, b-KDRIg4-7-myc-his 1 ug/mL on neutravidin, hybridoma supernatant 1:5
T1 construct: domain: Ig4-7; The text calls it 'a KDR antibody containing the Ig4-7 domain'; it is read as the KDR fragment; Purified on a nickel column; also called Ig4-7 domain of KDR; soluble KDR Ig4-7; not shown: myc-his tag of the pSecTag vector
T1 sequence (P35968 328-764): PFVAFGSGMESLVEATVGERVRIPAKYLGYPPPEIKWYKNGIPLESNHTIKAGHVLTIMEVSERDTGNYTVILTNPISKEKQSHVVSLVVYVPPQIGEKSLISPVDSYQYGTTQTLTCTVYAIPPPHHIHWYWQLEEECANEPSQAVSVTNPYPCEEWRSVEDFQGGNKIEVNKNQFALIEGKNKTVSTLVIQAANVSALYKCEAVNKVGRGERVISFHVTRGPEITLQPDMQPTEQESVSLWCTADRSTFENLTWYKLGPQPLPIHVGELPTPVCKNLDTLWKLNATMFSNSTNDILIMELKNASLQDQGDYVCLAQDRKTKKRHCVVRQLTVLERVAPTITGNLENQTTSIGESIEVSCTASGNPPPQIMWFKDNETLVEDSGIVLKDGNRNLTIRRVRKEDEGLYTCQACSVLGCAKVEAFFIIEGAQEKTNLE
Description: To screen by binding to the Ig4-7 domain of KDR, plates were first coated with neutravadin (Pierce) at 4 μg/mL and incubated overnight at 4° C. The plates were then blocked and subsequently incubated with b-KDRIg4-7-myc-his at 1 μg/mL for one hour at room temperature. Candidate hybridoma supernatants (at 1:5 dilution) were transferred to the plates and incubated for one hour at room temperature. The plates were then washed and incubated with goat anti-human IgG Fc POD (at 1:4000 dilution) for one hour at room temperature.

[1] = biological target: T2, soluble KDR (VEGF Receptor 2 D1-7, Cat. #676490, Calbiochem) (human, UniProt P35968 20-764); assay: ELISA, plate-coated soluble KDR 250 ng/mL, hybridoma supernatant 1:5
T2 construct: extracellular domain; Bought reagent; also called soluble human KDR; immobilized soluble KDR
T2 sequence (P35968 20-764): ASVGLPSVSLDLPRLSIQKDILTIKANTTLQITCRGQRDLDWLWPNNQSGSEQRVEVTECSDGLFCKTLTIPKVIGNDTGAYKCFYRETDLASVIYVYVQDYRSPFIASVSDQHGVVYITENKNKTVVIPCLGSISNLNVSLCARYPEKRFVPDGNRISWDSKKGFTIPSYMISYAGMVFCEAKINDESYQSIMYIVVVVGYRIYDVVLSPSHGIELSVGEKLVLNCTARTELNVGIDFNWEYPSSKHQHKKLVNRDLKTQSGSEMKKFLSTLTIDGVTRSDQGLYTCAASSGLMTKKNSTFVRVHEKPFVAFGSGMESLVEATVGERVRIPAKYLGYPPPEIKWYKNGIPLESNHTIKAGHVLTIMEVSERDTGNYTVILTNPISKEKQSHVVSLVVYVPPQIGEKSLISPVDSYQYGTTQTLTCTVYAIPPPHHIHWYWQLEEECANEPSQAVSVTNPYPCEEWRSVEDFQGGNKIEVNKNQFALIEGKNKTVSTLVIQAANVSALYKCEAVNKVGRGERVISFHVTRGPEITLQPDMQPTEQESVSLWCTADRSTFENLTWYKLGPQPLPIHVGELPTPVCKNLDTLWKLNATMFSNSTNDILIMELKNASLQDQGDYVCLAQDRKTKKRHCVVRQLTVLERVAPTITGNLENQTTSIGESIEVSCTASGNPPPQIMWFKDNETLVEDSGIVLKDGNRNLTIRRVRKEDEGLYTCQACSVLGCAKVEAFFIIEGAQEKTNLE
Description: To screen by binding to immobilized soluble KDR, plates were coated with KDR (Calbiochem) at 250 ng/mL overnight at 4° C. After blocking and washing the coated plates, the candidate hybridoma supernatants (at 1:5 dilution) were transferred to the plates and incubated for one hour at room temperature. The plates were then washed and incubated with secondary antibody (at 1:4000 dilution) for one hour at room temperature.

[2] = biological target: T3, human KDR (VEGFR2) on cells (human, UniProt P35968 20-1356); assay: FACS on HUVEC, hybridoma supernatant 1:50
T3 construct: whole, on cells; also called native KDR on HUVEC; endogenously expressed KDR
T3 sequence (P35968 20-1356): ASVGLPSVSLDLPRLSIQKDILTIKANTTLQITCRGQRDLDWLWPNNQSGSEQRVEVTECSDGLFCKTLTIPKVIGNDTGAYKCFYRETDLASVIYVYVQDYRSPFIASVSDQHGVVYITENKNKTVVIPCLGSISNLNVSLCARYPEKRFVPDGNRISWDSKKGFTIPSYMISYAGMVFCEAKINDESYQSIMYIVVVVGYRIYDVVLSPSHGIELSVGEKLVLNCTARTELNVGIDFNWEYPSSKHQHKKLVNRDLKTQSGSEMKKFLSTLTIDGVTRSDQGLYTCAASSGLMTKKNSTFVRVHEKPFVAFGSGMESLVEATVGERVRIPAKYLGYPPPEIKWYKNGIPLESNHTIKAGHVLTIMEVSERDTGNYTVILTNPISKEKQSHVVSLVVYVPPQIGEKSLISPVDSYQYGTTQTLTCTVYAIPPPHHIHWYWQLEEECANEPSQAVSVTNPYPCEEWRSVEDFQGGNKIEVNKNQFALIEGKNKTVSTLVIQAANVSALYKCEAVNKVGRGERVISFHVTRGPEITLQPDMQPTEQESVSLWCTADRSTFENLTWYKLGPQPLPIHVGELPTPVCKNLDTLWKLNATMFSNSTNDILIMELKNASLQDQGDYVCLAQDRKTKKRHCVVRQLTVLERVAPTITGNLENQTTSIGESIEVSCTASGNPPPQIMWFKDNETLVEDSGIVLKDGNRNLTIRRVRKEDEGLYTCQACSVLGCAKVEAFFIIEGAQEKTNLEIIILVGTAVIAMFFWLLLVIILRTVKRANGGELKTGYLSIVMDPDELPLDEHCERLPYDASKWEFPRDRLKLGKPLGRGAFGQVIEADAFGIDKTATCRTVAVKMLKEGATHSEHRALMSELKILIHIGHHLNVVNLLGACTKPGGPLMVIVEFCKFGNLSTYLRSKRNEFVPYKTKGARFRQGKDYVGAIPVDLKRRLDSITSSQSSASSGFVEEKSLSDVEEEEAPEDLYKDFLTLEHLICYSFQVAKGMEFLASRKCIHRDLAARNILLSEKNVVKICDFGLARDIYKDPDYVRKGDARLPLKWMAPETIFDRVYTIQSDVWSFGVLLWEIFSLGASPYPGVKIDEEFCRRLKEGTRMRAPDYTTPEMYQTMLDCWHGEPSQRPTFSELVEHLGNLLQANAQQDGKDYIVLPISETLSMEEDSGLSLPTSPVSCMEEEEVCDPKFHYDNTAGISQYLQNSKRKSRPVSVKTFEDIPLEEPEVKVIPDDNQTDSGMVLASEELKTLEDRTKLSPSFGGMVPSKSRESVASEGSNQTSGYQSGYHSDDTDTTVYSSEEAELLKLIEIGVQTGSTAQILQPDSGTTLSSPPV
Outline: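 HUVECs incubated 1 h at 4° C with hybridoma supernatant at 1:50, then Cy5 goat anti-human antibody (5 μg/mL) plus 7AAD (5 μg/mL) for 15 min at 4° C. Cell-surface binding read by FACS; goat anti-KDR antibody as positive control, irrelevant hybridoma supernatants as negative controls.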

[3] = biological target: T3, human KDR (VEGFR2) on cells; assay: cell-based or functional assay
[4] = biological target: T4, mouse KDR (Flk-1)/Fc (Cat. #443-KD/CF, R&D Systems) (mouse, UniProt P35918 20-762); assay: ELISA, plate-coated Flk-1/Fc 500 ng/mL, hybridoma supernatant 1:5
T4 construct: Bought reagent; also called mouse VEGFR2; KDR mouse ortholog; Fc part of the bought chimera not given
T4 sequence (P35918 20-762): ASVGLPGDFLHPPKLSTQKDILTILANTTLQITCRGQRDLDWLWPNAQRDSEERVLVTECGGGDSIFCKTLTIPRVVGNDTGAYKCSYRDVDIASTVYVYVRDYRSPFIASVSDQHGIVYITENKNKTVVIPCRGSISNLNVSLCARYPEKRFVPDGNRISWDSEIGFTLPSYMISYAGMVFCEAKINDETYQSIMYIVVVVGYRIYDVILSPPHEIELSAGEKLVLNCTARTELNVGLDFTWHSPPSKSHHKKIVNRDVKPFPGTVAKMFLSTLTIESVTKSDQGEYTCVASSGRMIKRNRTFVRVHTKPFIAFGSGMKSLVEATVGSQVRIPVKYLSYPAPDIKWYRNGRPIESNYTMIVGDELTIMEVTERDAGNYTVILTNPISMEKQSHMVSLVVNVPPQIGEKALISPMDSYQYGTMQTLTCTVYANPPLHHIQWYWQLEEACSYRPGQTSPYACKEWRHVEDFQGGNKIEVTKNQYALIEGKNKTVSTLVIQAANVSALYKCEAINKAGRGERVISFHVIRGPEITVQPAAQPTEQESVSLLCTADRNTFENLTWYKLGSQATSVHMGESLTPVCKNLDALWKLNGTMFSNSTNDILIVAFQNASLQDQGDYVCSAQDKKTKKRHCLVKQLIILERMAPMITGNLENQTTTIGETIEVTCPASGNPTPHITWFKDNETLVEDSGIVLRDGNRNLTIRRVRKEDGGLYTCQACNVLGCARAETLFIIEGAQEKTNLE

[5] = biological target: T3, human KDR (VEGFR2) on cells; assay: cell-based or functional assay; remark: listed apart in the source
[6] = biological target: T3, human KDR (VEGFR2) on cells; assay: cell-based or functional assay; remark: listed apart in the source
soluble KDR Ig4-7 domain [7] = biological target: T5, soluble KDR Ig4-7 domain (human, UniProt P35968 328-764); assay: ELISA, KDR Ig4-7 coat (1:1 diln.), antibody 1 ug/mL
T5 construct: domain: Ig4-7 domain; also called b-KDRIg4-7-myc-his; Ig4-7 domain of KDR; not shown: myc-his tag of the pSecTag construct
T5 sequence (P35968 328-764): as the sequence (P35968 328-764) above
Description: (§1) The cross-reactivity of purified antibodies was tested against KDR mouse ortholog KDR mouse ortholog (mouse VEGFR2, or Flk-1) and human VEGFR1 (Flt-1). The ability of the antibodies to bind soluble KDR Ig4-7 domain and to the entire KDR extracellular domain (ECD) was also measured.
(§2) Cross-reactivity experiments were carried out and measured using an ELISA based assay as described in Example 6. […] Antibody controls included IgG1 and IgG4 (Sigma-Aldrich, Cat. #15154 and #14639, respectively).

soluble KDR Ig4-7 domain [8] = biological target: T5, soluble KDR Ig4-7 domain; assay: ELISA, KDR Ig4-7 coat (1:1 diln.), antibody 0.1 ug/mL
Description: as §1, §2

soluble KDR Ig4-7 domain [9] = biological target: T5, soluble KDR Ig4-7 domain; assay: ELISA, KDR Ig4-7 coat (1:1 diln.), antibody 0.01 ug/mL
Description: as §1, §2

[10] = biological target: T6, whole KDR-ECD (Cat. # 676490, Calbiochem) (human, UniProt P35968 20-764); assay: ELISA, KDR-ECD coat 5 ug/mL, antibody 1 ug/mL
T6 construct: extracellular domain; Bought soluble protein; also called soluble KDR; VEGF Receptor 2 D1-7
T6 sequence (P35968 20-764): as the sequence (P35968 20-764) above
Description: as §1, §2

human KDR [11] = biological target: T7, human KDR (human, UniProt P35968 20-1356); assay: FACS titration of purified antibody on HUVEC cells (FACS Kd)
T7 construct: whole, on cells; also called VEGFR2; endogenously-expressed KDR in HUVEC cells
T7 sequence (P35968 20-1356): as the sequence (P35968 20-1356) above
Description: The binding affinities of the purified antibodies for endogenously-expressed KDR in HUVEC cells was measured. HUVEC cells were seeded at 150,000 cells/well and incubated with titrations of purified antibody for 4 hours at 4° C. The cells were then washed and incubated with goat anti-human IgG-Fc-Cy5+5 μg/mL 7-Amino-Actinomycin (7AAD) for 30 minutes at 4° C. Bound KDR was detected using FACS analysis.

human KDR [12] = biological target: T7, human KDR; assay: cell-based or functional assay
[13] = biological target: T6, whole KDR-ECD (Cat. # 676490, …); assay: ELISA, KDR-ECD coat 5 ug/mL, antibody 0.01 ug/mL
Description: as §1, §2

human KDR [14] = biological target: T7, human KDR; assay: cell-based or functional assay; remark: listed apart in the source
[15] = biological target: T6, whole KDR-ECD (Cat. # 676490, …); assay: ELISA, KDR-ECD coat 5 ug/mL, antibody 0.1 ug/mL
Description: as §1, §2

human KDR [16] = biological target: T7, human KDR; assay: cell-based or functional assay; remark: listed apart in the source

B1: anti-KDR monoclonal antibody 31E11 (antibody, V domains shown)
VH: QVQLVESGGGLVKPGGSLRLSCAASGFTFSDYYMSWIRQAPGKGLEWVSYISISGSTIYYADSVKGRFTISRDNAKNSLYLQMNSLRAEDTAVYYCARDDFWSGYYFNWFDPWGQGTLVTVSS
VL: DIQMTQSPSSLSASVGDRVTITCRANQTISTFLNWYQQNPGKAPKLLIYAASSLQSGVPSRFSGSGSGTDFTLTISSLQPEDFATYYCQQTYIIPLTFGGGTKVEIK
notes: Fully human mAb from XenoMouse (IgG2 or IgG4 strain); hybridoma supernatant
b-KDRIg4-7-myc-his
  b-KDRIg4-7 OD(450 nm): 1.28 OD450
[1]
  KDR OD(450 nm): 1.14 OD450
[2]
  FACS Geometric Mean: 18
[3]
  % Inhibition of VEGF-E-mediated pTyr Activity: 67%
[4]
  OD (450 nm): 0.162 OD450
[5]
  % Inhibition of VEGF165-mediated pTyr Activity, Average: 74%
  % Inhibition of VEGF165-mediated pTyr Activity, n = 1: 81%
  % Inhibition of VEGF165-mediated pTyr Activity, n = 2: 80%
  % Inhibition of VEGF165-mediated pTyr Activity, n = 3: 59%
[6]
  HUVEC survival (n = 1) 1:10 dilution of supernatant (RLU): 9140 RLU
  HUVEC survival (n = 2) 1:20 dilution of supernatant (RLU): 6980 RLU

B2: 30H10 (antibody, V domains shown)
VH: EVQLLESGGGLVQPGGSLRLSCAASGFTFSNYAMSWVRQAPGKGLEWVSAISGSGGITYYADSVKGRFTISRDNSKNTLFLQMNSLRAEDTAVYYCAKASGDNWGQGTLVSVSS
VL: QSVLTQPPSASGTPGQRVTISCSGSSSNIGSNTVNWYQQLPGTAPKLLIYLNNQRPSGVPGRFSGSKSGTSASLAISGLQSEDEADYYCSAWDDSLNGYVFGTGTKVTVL
notes: Fully human monoclonal antibody from a XenoMouse hybridoma (IgG2 or IgG4 strain), purified
Soluble KDR Ig4-7 domain [7]
  ELISA reading: 3.04
Soluble KDR Ig4-7 domain [8]
  ELISA reading: 2.77
Soluble KDR Ig4-7 domain [9]
  ELISA reading: 1.36
[10]
  ELISA reading: 2.47
Human KDR [11]
  Kd: 0.9 nM
Human KDR [12]
  6-keto Prostaglandin F1α release, Maximum Inhibition (% Inhibition), Average: 3%
  6-keto Prostaglandin F1α release, Maximum Inhibition (% Inhibition), N = 1 (200 nM): 0%
  6-keto Prostaglandin F1α release, Maximum Inhibition (% Inhibition), N = 2 (333 nM): 6%
[13]
  ELISA reading: 0.117
Human KDR [14]
  HUVEC survival, Maximum Inhibition at 50 nM (% Inhibition), Average: -5%
  HUVEC survival, Maximum Inhibition at 50 nM (% Inhibition), N = 1: -9%
  HUVEC survival, Maximum Inhibition at 50 nM (% Inhibition), N = 2: -1%
[15]
  ELISA reading: 0.31
Human KDR [16]
  KDR tyrosine phosphorylation in HUVEC, EC50 (nM), Average: 0.4 nM
  KDR tyrosine phosphorylation in HUVEC, EC50 (nM), N = 1: 0.6 nM
  KDR tyrosine phosphorylation in HUVEC, EC50 (nM), N = 2: 0.2 nM
  KDR tyrosine phosphorylation in HUVEC, Maximum Inhibition at 100 nM (% Inhibition), Average: 29%
  KDR tyrosine phosphorylation in HUVEC, Maximum Inhibition at 100 nM (% Inhibition), N = 1: 36%
  KDR tyrosine phosphorylation in HUVEC, Maximum Inhibition at 100 nM (% Inhibition), N = 2: 22%

B3: anti-KDR monoclonal antibody 27D10 (antibody, V domains shown)
VH: QLQLQESGPGLVKPSETLSLTCTVSGGSISSRSDYWGWIRQPPGKGLEWIGTIYYSGSTFYNPSLKSRVTISVDTSKNQFSLKLSSVTAADTAVYYCARQQLVLYYFDYWGQGTLVTVSS
VL: not shown
notes: as for B1
b-KDRIg4-7-myc-his
  b-KDRIg4-7 OD(450 nm): 2.03 OD450
[1]
  KDR OD(450 nm): 3.24 OD450
[2]
  FACS Geometric Mean: 24
[3]
  % Inhibition of VEGF-E-mediated pTyr Activity: 63%
[4]
  OD (450 nm): 0.166 OD450
[5]
  % Inhibition of VEGF165-mediated pTyr Activity, Average: 58%
  % Inhibition of VEGF165-mediated pTyr Activity, n = 1: 62%
  % Inhibition of VEGF165-mediated pTyr Activity, n = 2: 48%
  % Inhibition of VEGF165-mediated pTyr Activity, n = 3: 63%
[6]
  HUVEC survival (n = 1) 1:10 dilution of supernatant (RLU): 20100 RLU
  HUVEC survival (n = 2) 1:20 dilution of supernatant (RLU): 9710 RLU

B4: anti-KDR monoclonal antibody 29D4 (antibody, V domains shown)
VH: QLQLQESGPGLVKPSETLSLTCTVSGGSISSRSNYWGWIRQPPGKGLEWIGTIYYSGHTYYNPSLKSRVSISVDTSKNQFSLKLSSVTATDTALYYCARQQLVLYYFEYWGQGTLVTVSS
VL: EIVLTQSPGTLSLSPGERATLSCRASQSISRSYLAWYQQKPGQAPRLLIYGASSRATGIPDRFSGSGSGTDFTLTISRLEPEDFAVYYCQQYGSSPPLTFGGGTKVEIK
notes: as for B1
b-KDRIg4-7-myc-his
  b-KDRIg4-7 OD(450 nm): 2.61 OD450
[1]
  KDR OD(450 nm): 1 OD450
[2]
  FACS Geometric Mean: 26
[3]
  % Inhibition of VEGF-E-mediated pTyr Activity: 67%
[4]
  OD (450 nm): 0.1 OD450
[5]
  % Inhibition of VEGF165-mediated pTyr Activity, Average: 72%
  % Inhibition of VEGF165-mediated pTyr Activity, n = 1: 85%
  % Inhibition of VEGF165-mediated pTyr Activity, n = 2: 67%
  % Inhibition of VEGF165-mediated pTyr Activity, n = 3: 63%
[6]
  HUVEC survival (n = 1) 1:10 dilution of supernatant (RLU): 12900 RLU
  HUVEC survival (n = 2) 1:20 dilution of supernatant (RLU): 5380 RLU

B5: anti-KDR monoclonal antibody 32F4 (antibody, V domains shown)
VH: QLQLQESGPGLVKPSGTLSLSCTVSGGSISSRSDYWGWIRQPPGKGLEWIGTIYYSGNTFYNPSLKSRVTISVDTSKKQFSLKLSSVTAADTAVYYCARQQLVLYYFDYWGQGTLVTVSS
VL: EIVLTQSPGTLSLSPGERATLSCRTSQSVSSSYLAWYQQKPGQAPRLLIYGASSRATGVPDRFSGSGSGTDFSLTISRLEPEDFAVYYCQQYGSSPPLTFGGGTKVEIK
notes: as for B1
b-KDRIg4-7-myc-his
  b-KDRIg4-7 OD(450 nm): 2.29 OD450
[1]
  KDR OD(450 nm): 0.907 OD450
[2]
  FACS Geometric Mean: 27
[3]
  % Inhibition of VEGF-E-mediated pTyr Activity: 62%
[4]
  OD (450 nm): 0.094 OD450
[5]
  % Inhibition of VEGF165-mediated pTyr Activity, Average: 73%
  % Inhibition of VEGF165-mediated pTyr Activity, n = 1: 88%
  % Inhibition of VEGF165-mediated pTyr Activity, n = 2: 76%
  % Inhibition of VEGF165-mediated pTyr Activity, n = 3: 56%
[6]
  HUVEC survival (n = 1) 1:10 dilution of supernatant (RLU): 20100 RLU
  HUVEC survival (n = 2) 1:20 dilution of supernatant (RLU): 5030 RLU

— patent US20100260765A1 (AstraZeneca / MedImmune, published 2010)
